Measured values: patent US20100313308
Positions count from the first letter of the chain named.

B1: GST-UBP15 (protein)
chain: MLEPRGADIPILFLVLVVLPVVAYILLGKWSNISEKRVRANLLAQMAAEEALRAETVVNADRGVRFESVATENRAQRTRTKTVSAGGGAVRAEFDAGARETVAEQRSDSVTATCGVTVVAPVNNNELHVCARCFGPAKTRCSRCKSVRYCSGKCQIIHWRVAHKDECVPVESCSSSSERVSFEKDSVLYDHGMDSTMYSNNTTQAAKGKTSKSSVDFASLGISQNDITPQINTQGRKSVGKQHSSKANRESCRRDSATVFDSSDEAASAGGDNKTSHIKHKSRGNSYAAETNPRRHSVDSSAVQMNGQSFVSGMQESHKHENNLGVRSSFGCPNTQYPSNGTRTATLPRTGINKSGEQSCTETSKKGQVAAVSKTVRSKDTGISEESNGISSTMGIMKMMGLRNSTKHDDRYKNLKMLFPYEEFLKFFQCEVFDLSPRGLVNCGNSCYANAVLQSLTCTKPLVAYLLRRSHSRSCSGKDWCLMCELEQHVMMLRESGGPLSASRILSHMRSINCQIGDGSQEDAHEFLRLLVASMQSICLERLGGETKVDPRLQETTLVQHMFGGRLRSKVKCLRCDHESERYENIMDLTLEIYGWVESLQDALTQFTRPEDLDGENMYRCSRCAGYVRARKELSIHEAPNILTIVLKRFQEGRYGKINKCISFPEMLDMIPFMTRTGDVPPLYMLYAVIVHLDTLNASFSGHYISYVKDLRGNWYRIDDSEIHPVPMTQVMSEGAYMLFYMRSYPRPQRGEHNGKAPVHHSQPRNEMKEQRKPVNRFKPRADHKNTESSSSEWSLFTSSDEASFTTESTRDSFSTIDYTDVCHVVDSSSPFAIFNNVYHNVEPSPHNTVACRMFSGTKPETRYFVEQETNHNNTVVLDATPSLYPIPAPYPPHDYYDQSMYVNYETNPEFNNGQDQDRTYSYW
B2: GST-UBP15C447A (protein)
chain: B1 chain with C447A
B3: GST-UBP15C447S (protein)
chain: B1 chain with C447S

Assays:
[1] = biological target: his-tagged polyubiquitin UBQ10 (hexameric polyubiquitin), Q8H159
[2] = biological target: his-tagged ubiquitin-extension protein UBQ1
[3] = biological target: multiubiquitin chain linked by iso-peptide

Sequence of his-tagged polyubiquitin UBQ10 (hexameric polyubiquitin), Q8H159 (Q8H159 whole entry, looked up): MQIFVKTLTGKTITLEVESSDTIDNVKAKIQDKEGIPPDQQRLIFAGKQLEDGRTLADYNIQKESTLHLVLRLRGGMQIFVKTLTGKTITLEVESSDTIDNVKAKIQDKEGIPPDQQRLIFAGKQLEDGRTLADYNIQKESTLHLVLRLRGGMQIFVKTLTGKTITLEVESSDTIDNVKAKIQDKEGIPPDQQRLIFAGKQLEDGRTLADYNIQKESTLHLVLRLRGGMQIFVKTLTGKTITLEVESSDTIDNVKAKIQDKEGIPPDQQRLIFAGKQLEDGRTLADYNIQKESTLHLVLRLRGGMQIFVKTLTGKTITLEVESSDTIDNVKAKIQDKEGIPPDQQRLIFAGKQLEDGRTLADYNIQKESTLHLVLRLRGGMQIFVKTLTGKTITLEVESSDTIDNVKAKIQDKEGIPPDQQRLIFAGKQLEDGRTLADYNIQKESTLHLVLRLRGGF

Row | Protein | in vitro DUB activity assay (co-expression in E. coli, immunoblot with anti-ubiquitin antibody) [1] | in vitro DUB activity assay (co-expression in E. coli, immunoblot with anti-ubiquitin antibody) [2] | in vitro DUB activity assay (data not shown) [3]
1 | B1 | UBP15 can cleave substrate UBQ10 (hexameric polyubiquitin) | UBP15 can cleave substrate UBQ1 (ubiquitin-extension protein) | UBP15 can only cleave a-linked peptide (polyubiquitin and ubiquitin-extension gene) (FIG. 5A), not c-linked isopeptide (multiubiquitin chain linked by iso-peptide) (data not shown)
2 | B2 | Cysteine^447 is essential for this DUB activity | Cysteine^447 is essential for this DUB activity | –
3 | B3 | Cysteine^447 is essential for this DUB activity | Cysteine^447 is essential for this DUB activity | –
